IntAct's records for PubMed 24485452

B1: Golgi phosphoprotein 3 (Homo sapiens), Q9H4A6 (parent)
chain: MTSLTQRSSGLVQRRTEASRNAADKERAAGGGAGSSEDDAQSRRDEQDDDDKGDSKETRLTLMEEVLLLGLKDREGYTSFWNDCISSGLRGCMLIELALRGRLQLEACGMRRKSLLTRKVICKSDAPTGDVLLDEALKHVKETQPPETVQNWIELLSGETWNPLKLHYQLRNVRERLAKNLVEKGVLTTEKQNFLLFDMTTHPLTNNNIKQRLIKKVQEAVLDKWVNDPHRMDRRLLALIYLAHASDVLENAFAPLLDEQYDLATKRVRQLLDLDPEVECLKANTNEVLWAVVAAFTK

Variants of: B1
Details: with my18a_human MYO18A

effect of a mutation on the interaction | Variant
increasing interaction strength | T143D;T148D
increasing interaction strength | T143E;T148E
